Assay results: patent publication US20200199204A1 (UNITED STATES OF AMERICA AS REPRESENTED BY THE SECRETARY …, published 2020)
Positions count from the first letter of the chain named.

How the values were obtained:
Test in all cases: cell-based or functional assay
[1] = target: SIV Env of SIVmac251.30 (nonHIV control), on Env-pseudovirus (SIVmac251.30)
[2] = target: HIV-1 Env of strain TH976.17 (clade AE), on Env-pseudovirus (HIV-1 strain TH976.17)
[3] = target: HIV-1 Env of strain CNE3 (clade AE), on Env-pseudovirus (HIV-1 strain CNE3)

Measured: IC50, neutralization of Env-pseudovirus (TZM-bl assay)

B1: CAP256-VRC26.10 (antibody, V domains shown)
VH: QAILVESGGGVVQPGRSLRLSCAASQFTFSGHGLHWVRQAPGKGLEWVASISFAGTKMDYADSVKGRFAISRDNSKNTLYLQMNSLRVEDTALYYCAKDMREYECEYWTSDYYDFGRPQPCIDRRGVVGIFDMWGQGTMVTVST
VL: QSVLTQPPSVSAAPGQKVTISCSGSSSNIGDNYVSWYQHLPGTAPKLLIYENTRRPSGIPDRFSGSKSGTSATLAITGLQTGDEADYYCGTWDVRPNRGAVFGTGTKVTVLG
> 50 µg/mL: all assays above

B2: CAP256-VRC26.08 (antibody, V domains shown)
VH: EVQLVESGGGVVQPGRSLTLSCAASQFTFSNYGMHWVRQAPGKGLEWVASVSNDGTKKYHGDSVWGRFTISRDNSKNTLFLQMSSLRAEDTAVYFCVRDQREDECEEWWSDYYDFGRELPCRKFRGLGLAGIFDIWGHGTMVTVSS
VL: QSALTQPPSVSAAPGQKVTISCSGNSSNIGNNFVSWYQQVPGTAPKLLLYETYRRPSGIPDRFSGSKSGTSATLAITGLQTGDEADYYCTVWGVRKGVGAVFGTGTKVTVLG
> 50 µg/mL: all assays above

B3: CAP256-VRC26.09 (antibody, V domains shown)
VH: EVQLVESGGGVVQPGRSLTLSCAASQFNFANYGMHWVRQAPGKGLEWVASISNDGTKKYHEESVWGRFTISKDNSKSTLFLQMNSLRIEDTALYFCVKDQREDECEEWWSDYYDFGRELPCRKSRGLGLAGIFDMWGHGTMVTVSS
VL: B2 VL with V40L, L49I, T52N, Y53N, T77S, Y88W, T90A, K96R, V98A, T104A
> 50 µg/mL: all assays above
